Here are results for three molecules from US20050037969A1 (ARBOR VITA, published 2005).

Ends that are not written are not given here. * marks the point of attachment. Biotin = O=C1N[C@H]2[C@H](CS[C@H]2CCCCC(=O)*)N1

T1: K858 PDZ-GST fusion protein (Homo sapiens (Human), UniProt Q8WWI1 1038-1131)
T1 construct: Order of GST and PDZ part and limits not seen in the excerpts
T1 sequence: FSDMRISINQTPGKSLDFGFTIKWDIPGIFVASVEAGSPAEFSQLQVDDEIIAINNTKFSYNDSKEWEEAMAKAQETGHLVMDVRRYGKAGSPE

T2: GEF PDZ-GST fusion protein (Homo sapiens (Human), UniProt Q8TEU7 293-400)
T2 construct: The label GEF is not explained in the excerpts
T2 sequence: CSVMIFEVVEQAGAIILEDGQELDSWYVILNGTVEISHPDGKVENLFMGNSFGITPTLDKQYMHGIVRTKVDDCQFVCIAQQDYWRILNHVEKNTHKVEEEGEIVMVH

T3: TAX-IP2L PDZ-GST fusion protein (Homo sapiens (Human), UniProt Q8TF64 107-197)
T3 construct: Order of GST and PDZ part and limits not seen in the excerpts
T3 sequence: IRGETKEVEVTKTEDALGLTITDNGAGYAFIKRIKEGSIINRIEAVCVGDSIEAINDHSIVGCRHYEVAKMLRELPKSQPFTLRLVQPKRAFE

T4: GST-TAX-IP43 PDZ domain fusion protein (human, UniProt Q13884 109-180)
T4 construct: also called TAX43; not shown: glutathione S-transferase encoded by vector pGEX-3X (Pharmacia)
T4 sequence: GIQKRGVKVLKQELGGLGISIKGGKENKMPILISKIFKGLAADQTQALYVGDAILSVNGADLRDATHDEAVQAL

T5: GST-TAX-IP2 PDZ domain fusion protein (human, UniProt O14908 129-216)
T5 construct: also called TAX-1P2; TAX2; not shown: glutathione S-transferase encoded by vector pGEX-3X (Pharmacia)
T5 chain: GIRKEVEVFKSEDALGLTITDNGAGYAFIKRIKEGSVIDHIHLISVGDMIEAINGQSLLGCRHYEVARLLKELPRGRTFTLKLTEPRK

T6: GST-AF6 PDZ domain fusion protein (Homo sapiens (Human), UniProt P55196 1001-1093)
T6 construct: also called af-6 protein; not shown: glutathione S-transferase encoded by vector pGEX-3X (Pharmacia)
T6 sequence: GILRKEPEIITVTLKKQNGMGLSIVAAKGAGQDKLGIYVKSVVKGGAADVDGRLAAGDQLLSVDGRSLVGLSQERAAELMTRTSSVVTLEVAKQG

T7: ConEn PDZ-GST fusion protein (Homo sapiens (Human), UniProt Q969H4 193-287)
T7 construct: The label ConEn is not explained in the excerpts
T7 sequence: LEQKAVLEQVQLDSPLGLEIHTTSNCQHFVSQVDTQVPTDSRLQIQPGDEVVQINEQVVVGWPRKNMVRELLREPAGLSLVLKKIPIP

T8: GST-DLG5 (p-dlg) PDZ domain fusion protein (Human, UniProt Q8TDM6 1343-1583)
T8 construct: also called Human discs large protein p-dlg; not shown: glutathione S-transferase encoded by vector pGEX-3X (Pharmacia)
T8 sequence: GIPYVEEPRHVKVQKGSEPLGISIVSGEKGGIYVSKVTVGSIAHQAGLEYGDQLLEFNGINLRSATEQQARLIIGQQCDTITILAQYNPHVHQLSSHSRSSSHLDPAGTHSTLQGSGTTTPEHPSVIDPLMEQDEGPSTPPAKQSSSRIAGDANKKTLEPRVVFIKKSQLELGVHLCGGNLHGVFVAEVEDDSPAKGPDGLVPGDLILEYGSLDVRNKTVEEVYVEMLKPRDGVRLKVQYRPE

T9: GST-DVL1 PDZ domain fusion protein (human, UniProt O14640 247-339)
T9 construct: also called human dishevelled segment polarity protein homolog; not shown: glutathione S-transferase encoded by vector pGEX-3X (Pharmacia)
T9 sequence: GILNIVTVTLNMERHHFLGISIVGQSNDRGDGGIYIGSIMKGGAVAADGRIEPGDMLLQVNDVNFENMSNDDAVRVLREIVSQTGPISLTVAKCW

T10: SP short PDZ-GST fusion protein (Homo sapiens (Human), UniProt O43464 350-435)
T10 construct: The label SP short is not explained in the excerpts
T10 sequence: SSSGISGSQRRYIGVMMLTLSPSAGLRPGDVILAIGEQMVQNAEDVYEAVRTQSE

T11: TAX-IP33 PDZ-GST fusion protein (Homo sapiens (Human), UniProt O14910 103-193)
T11 construct: Order of GST and PDZ part and limits not seen in the excerpts
T11 sequence: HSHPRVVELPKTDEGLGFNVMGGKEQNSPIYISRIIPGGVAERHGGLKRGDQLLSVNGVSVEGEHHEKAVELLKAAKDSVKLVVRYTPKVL

T12: GST-KIAA0303 PDZ domain fusion protein (Homo sapiens (Human), UniProt O15021 1138-1228)
T12 construct: also called K303; not shown: glutathione S-transferase encoded by vector pGEX-3X (Pharmacia)
T12 sequence: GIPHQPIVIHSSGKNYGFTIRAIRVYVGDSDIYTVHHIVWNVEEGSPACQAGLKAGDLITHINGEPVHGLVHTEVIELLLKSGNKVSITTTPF

T13: GST-prIL16 fusion protein (PDZ domains 1-2) (Homo sapiens (Human), UniProt Q14005 1111-1324)
T13 construct: also called putative interleukin 16 precursor; not shown: glutathione S-transferase encoded by vector pGEX-3X (Pharmacia)
T13 sequence: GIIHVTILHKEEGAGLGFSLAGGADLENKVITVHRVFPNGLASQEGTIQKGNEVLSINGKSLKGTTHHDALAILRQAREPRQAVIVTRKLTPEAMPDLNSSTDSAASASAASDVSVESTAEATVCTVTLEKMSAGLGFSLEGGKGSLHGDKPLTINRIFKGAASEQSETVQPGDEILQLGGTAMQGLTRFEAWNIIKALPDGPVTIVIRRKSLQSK

B1: CD138 C-terminal peptide AA18L, biotinylated (peptide)
peptide: Biotin-PKQANGGAYQKPTKQEEFYA
notes: also called CD138 (syndecan-1); CD138 (syndecan)
B2: KV1.3 C-terminal peptide AA33L, biotinylated (peptide)
peptide: Biotin-TTNNNPNSAVNIKKIFTDV
B3: CD49E C-terminal peptide AA11L, biotinylated (peptide)
peptide: Biotin-PYGTAMEKAQLKPPATSDA
notes: also called CD49E (alpha-4)

T14 sequence (Q2T9M1 other isoform, or with tags, fused parts or gaps limits assumed): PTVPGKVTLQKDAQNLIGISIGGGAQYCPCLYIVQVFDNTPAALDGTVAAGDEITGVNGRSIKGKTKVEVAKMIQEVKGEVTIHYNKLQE

The first test has as its target T14, PICK1 PDZ-GST fusion protein (Bos taurus (Bovine), UniProt Q2T9M1 17-105).
T14 construct: Order of GST and PDZ part and limits not seen in the excerpts
The test can be described thus: A/G assays.
In the case of B1, the binding result is recorded as “no binding”.

With B2, the binding result is listed as “no binding”.

In the case of B3, the binding result was “no binding”.

The target in another test is T1, K858 PDZ-GST fusion protein. Briefly: A/G assays.
Regarding B1, the binding result is reported as “no binding”.

With B2, the binding result is given as “no binding”.

For the molecule B3, the binding result is given as “no binding”.

A further test addresses T2, GEF PDZ-GST fusion protein. The test can be described thus: A/G assays.
Consider B1, for which the binding result is “no binding”.

B2: the binding result is “no binding”.

Take B3: the binding result is given as “no binding”.

Another test deals with T3, TAX-IP2L PDZ-GST fusion protein. The test can be described thus: A/G assays.
In the case of B1, the binding result is on record as “no binding”.

On to B2, for which the binding result is listed as “no binding”.

For B3, the binding result is on record as “no binding”.

The target of the next test is T4, GST-TAX-IP43 PDZ domain fusion protein. The test can be described thus: A/G assays.
Consider B1, for which the binding result is given as “no binding”.

Turning to B2, the binding result is given as “no binding”.

Regarding B3, the binding result was “no binding”.

The next test concerns the target T5, GST-TAX-IP2 PDZ domain fusion protein. The test can be described thus: A/G assays.
With B1, the binding result was “no binding”.

As to B2, the binding result is on record as “no binding”.

As for B3, the binding result is “no binding”.

The target in a further test is T6, GST-AF6 PDZ domain fusion protein. Briefly: A/G assays.
B1: the binding result is reported as “no binding”.

For B2, the binding result is reported as “no binding”.

As for B3, the binding result was “no binding”.

The next test deals with T7, ConEn PDZ-GST fusion protein. The test can be described thus: A/G assays.
Regarding B1, the binding result was “no binding”.

With B2, the binding result was “no binding”.

Turning to B3, the binding result was “no binding”.

The next test has as its target T8, GST-DLG5 (p-dlg) PDZ domain fusion …. Briefly: A/G assays.
For the molecule B1, the binding result is listed as “no binding”.

Regarding B2, the binding result is on record as “no binding”.

Regarding B3, the binding result is “no binding”.

The target in another test is T15, GST-TIAM1 PDZ domain fusion protein (Homo sapiens (Human), UniProt Q13009 845-931).
T15 construct: also called TLAM1; T-lymphoma invasion and metastasis inducing protein 1; not shown: glutathione S-transferase encoded by vector pGEX-3X (Pharmacia)
T15 sequence (Q13009 other isoform, or with tags, fused parts or gaps): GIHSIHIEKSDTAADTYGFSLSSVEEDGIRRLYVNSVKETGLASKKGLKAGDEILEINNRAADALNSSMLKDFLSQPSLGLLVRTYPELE
The test can be described thus: A/G assays.
For the molecule B2, the binding result was “no binding”.

Consider B3, for which the binding result is recorded as “no binding”.

In a further test the target is T9, GST-DVL1 PDZ domain fusion protein. Briefly: A/G assays.
As to B1, the binding result is “no binding”.

In the case of B3, the binding result is given as “no binding”.

The next test addresses T10, SP short PDZ-GST fusion protein. Briefly: A/G assays.
As to B1, the binding result was “no binding”.

Take B2: the binding result is on record as “no binding”.

For the molecule B3, the binding result was “no binding”.

For another test, the target named is T16, K316 PDZ-GST fusion protein (Homo sapiens (Human), UniProt Q14CM0 72-159).
T16 construct: Order of GST and PDZ part and limits not seen in the excerpts
T16 sequence (Q14CM0 72-159 limits assumed): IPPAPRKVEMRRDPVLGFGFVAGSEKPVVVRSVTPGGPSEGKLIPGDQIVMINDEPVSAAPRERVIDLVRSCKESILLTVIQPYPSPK
Briefly: A/G assays.
For the molecule B1, the binding result is given as “no binding”.

Take B2: the binding result was “no binding”.

For B3, the binding result is “no binding”.

The target of another test is T11, TAX-IP33 PDZ-GST fusion protein. Briefly: A/G assays.
Turning to B1, the binding result is listed as “no binding”.

B2: the binding result is reported as “no binding”.

Regarding B3, the binding result was “no binding”.

The next test deals with T12, GST-KIAA0303 PDZ domain fusion protein. The test can be described thus: A/G assays.
Turning to B1, the binding result is listed as “no binding”.

B2: the binding result is “no binding”.

In the case of B3, the binding result is given as “no binding”.

A further test deals with T13, GST-prIL16 fusion protein (PDZ domains …). The test can be described thus: A/G assays.
As to B1, the binding result is given as “no binding”.

Regarding B2, the binding result is “no binding”.

With B3, the binding result is recorded as “no binding”.
